Reference: patent US20140274782A1, “AFFINITY REAGENTS AND METHODS FOR DETECTION, PURIFICATION, AND PROTEOMIC ANALYSIS OF METHYLATED PROTEINS” (The Board of Trustees of the Leland Stanford Junior …, priority 2013, published 2014)

Target: RPL14-60S ribosomal protein L14 (human) (UniProt P50914)
Test: ProtoArray, GST-treated control array

3× Flag-3×MBT (designed binder; other documents disagree on this pair), sequence (Q9Y468 258-598): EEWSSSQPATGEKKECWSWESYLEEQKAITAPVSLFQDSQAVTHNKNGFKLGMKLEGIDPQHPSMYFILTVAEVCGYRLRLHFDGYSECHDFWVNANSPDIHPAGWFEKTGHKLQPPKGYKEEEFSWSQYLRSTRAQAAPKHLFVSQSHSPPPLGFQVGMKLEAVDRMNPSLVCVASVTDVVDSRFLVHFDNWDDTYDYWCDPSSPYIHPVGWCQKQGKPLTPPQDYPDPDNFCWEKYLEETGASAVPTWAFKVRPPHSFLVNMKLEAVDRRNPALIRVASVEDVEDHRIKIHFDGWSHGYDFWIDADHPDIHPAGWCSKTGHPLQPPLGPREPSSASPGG

GST Average SNR: 0.728
Substance: 3× Flag-3×MBT (designed binder; other documents disagree on this pair)
